Measurements taken from PMC12509757 (2025).

Molecular target: BSA (Bos taurus (Bovine), UniProt P02769)
Experiment: co-sedimentation (ultracentrifugation pelleting, immunoblot), BSA in place of microtubules as negative control

Sequence of BSA (P02769 25-607): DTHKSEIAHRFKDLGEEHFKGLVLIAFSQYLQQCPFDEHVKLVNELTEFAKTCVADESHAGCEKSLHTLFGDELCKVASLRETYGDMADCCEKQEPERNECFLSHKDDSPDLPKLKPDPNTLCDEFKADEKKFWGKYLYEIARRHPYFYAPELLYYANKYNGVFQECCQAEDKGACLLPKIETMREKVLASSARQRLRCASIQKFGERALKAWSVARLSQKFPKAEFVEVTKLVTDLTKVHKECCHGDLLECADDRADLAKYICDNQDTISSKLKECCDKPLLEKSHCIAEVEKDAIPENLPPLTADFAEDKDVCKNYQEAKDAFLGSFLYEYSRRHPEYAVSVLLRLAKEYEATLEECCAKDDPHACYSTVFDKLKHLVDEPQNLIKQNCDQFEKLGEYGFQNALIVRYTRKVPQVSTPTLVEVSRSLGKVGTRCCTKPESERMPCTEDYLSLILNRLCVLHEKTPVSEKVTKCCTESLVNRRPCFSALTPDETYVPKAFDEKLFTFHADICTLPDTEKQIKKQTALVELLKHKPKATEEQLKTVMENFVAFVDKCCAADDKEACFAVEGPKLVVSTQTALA

B1: His GST BAR-PH (aa 1-388) of ARHGAP10, WT (protein)
chain: MGLQPLEFSDCYLDSPWFRERIRAHEAELERTNKFIKELIKDGKNLIAATKSLSVAQRKFAHSLRDFKFEFIGDAVTDDERCIDASLREFSNFLKNLEEQREIMALSVTETLIKPLEKFRKEQLGAVKEEKKKFDKETEKNYSLIDKHLNLSAKKKDSHLQEADIQVEQNRQHFYELSLEYVCKLQEIQERKKFEFVEPMLSFFQGMFTFYHQGHELAKDFNHYKMELQINIQNTRNRFEGTRSEVEELMNKIRQNPKDHKRASQFTAEGYLYVQEKRPAPFGSSWVKHYCMYRKAAKKFNMIPFEHRSGGKLGDGEVFFLKECTKRHTDSIDRRFCFDIEAADRPGVSLTMQAFSEEERKQWLEALGGKEALSHSFNTAIIPRPEGN
B1: no binding.
